This note sets out measurements from patent publication US20230340061A1, “PEPTIDES AND METHODS FOR THE TREATMENT OF MULTIPLE SCLEROSIS” (IMCYSE SA, priority 2020, published 2023).

Series [1] deals with CD4+ T cells of patients with multiple sclerosis. The experiment in a line: Generation of antigen specific CD4+ T cells, CD154 (CD40L) expression by flow cytometry. To be noted: P4-specific CD4+ cell lines of patients MS017 (S14) and MS026 (S13), overnight co-culture. In kind it is cell-based, human. The protocol:
PBMCs were isolated from blood samples of patients with multiple sclerosis treated by dimethyl fumarate (DMF) on Lymphoprep density gradients.
CD14+ monocytes were isolated from these PBMCs by performing positive immunomagnetic separation with CD14 microbeads (Miltenyi Biotec, 130-050-201) according to the supplier recommendations. CD14+ monocytes were cultured for six days and maturated to generate autologous dendritic cells (mDC). CD19+ B cells were isolated from the CD14- PBMCs fraction by performing positive immunomagnetic separation with CD19 microbeads (Miltenyi Biotec, 130-050-301) according to the supplier recommendations. CD19+ B cells were cultured and immortalized with EBV to generate autologous lymphoblastoid cell lines (LCL).
(§1) Naïve CD4+ T cells were also purified from the CD14- PBMCs fraction by performing negative immunomagnetic separation with naïve CD4+ T cell isolation kit (Miltenyi Biotec, 130-094-131) according to the supplier recommendations. Naïve CD4+ T cells were co-cultured with autologous mDC or LCL in the presence of P2 and P4 peptides. The CD4+ T cells were re-stimulated periodically, about every 10-12 days.
The ability of the peptides to generate antigen specific CD4+ T cells was evaluated by flow cytometry analysis of the TCR induced surface activation marker CD154 (CD40L) expression after overnight co-culture at resting state with autologous LCL without (no peptide) or with the peptides (P2 or P4). The surface expression of the lytic marker Fas ligand (CD178) was also evaluated by flow cytometry analysis after overnight co-culture at resting state with autologous LCL without (no peptide) or with the peptide (P4).

Series [2] has the same test system. The experiment in a line: Cytokine secretion in CD4+ T cell culture supernatants (LEGENDplex Human Th Panel). It counts as cell-based. To be noted: culture supernatant of MS017 (S15) CD4+ cell line; P4 vs C-WT epitope peptides.
From the text: as §1
The ability of the peptides to induce cytokines secretion in CD4+ T cells culture supernatants was evaluated by flow cytometry analysis after overnight co-culture at resting state with autologous mDC without (no peptide) or with the peptides (P2 or P4). Supernatants were analyzed with the LEGENDplex Human Th Panel (13-plex) (BioLegend, 740721) according to the supplier recommendations.

Series [3] deals with Experimental Auto-Immune Encephalomyelitis (EAE). The experiment in a line: Therapeutic administration in MOG35-55-induced EAE. The following applies: 30 μg s.c. with alum, days 4, 9, 14, 19. It counts as in vivo. The protocol: The study used a total of 48 female C57BL/6 mice (Taconic Biosciences, 9 weeks old on Day 0). Mice were acclimated for 7 days prior to the first injection. Mice were assigned to groups in a balanced manner to achieve similar average weight across the groups at the start of the study.
Dosing of all mice was performed once on each of the days indicated in Table 2, s.c., at a volume of 0.05 mL/site, each mouse receiving injection at two sites, for a total of 0.1 mL/mouse/dosing day. IMCY-0189 or P4 peptide total dose was 30 μg per administration.
Lyophilized immunogenic peptide IMCY-0189 with the sequence […] (SEQ ID NO: 260), comprising an oxidoreductase motif HCPYC (SEQ ID NO: 24), a linker GW, a murine Myelin Oligodendrocyte Glycoprotein (MOG35-55) MHCII T cell epitope […] (SEQ ID NO: 261) and a flanking sequence HLYR (SEQ ID NO: 262) (Smart Bioscience) was solubilized immediately before use. Lyophilized IMCY-0189 was thawed at room temperature for 10 minutes, resuspended in Na Acetate buffer 50 mM NaCl 0.9% pH 5.4 and incubated at room temperature for 10 minutes. Reconstituted peptide was then mixed with Imject™ Alum Adjuvant before injection.
Lyophilized immunogenic peptide P4 with the sequence […] (SEQ ID NO: 27), comprising an oxidoreductase motif KHCPYC (SEQ ID NO: 50), a linker VRY, a human Myelin Oligodendrocyte Glycoprotein (MOG201-212) MHCII T cell epitope […] (SEQ ID NO: 2) and a flanking sequence TLFKK (SEQ ID NO: 263) (Smart Bioscience) was solubilized immediately before use. Lyophilized P4 was thawed at room temperature for 10 minutes, resuspended in Na Acetate buffer 50 mM NaCl 0.9% pH 5.4 and incubated at room temperature for 10 minutes. Reconstituted peptide was then mixed with Imject™ Alum Adjuvant before injection.
EAE was induced in all mice as follows: • Day 0, Hour 0—Immunization with a peptide corresponding to the amino acids 35-55 of MOG (MOG35-55)/CFA • Day 0, Hour 2—Injection of pertussis toxin • Day 1, Hour 0—2nd injection of pertussis toxin (24 hours after initial immunization).
Mice were injected subcutaneously at two sites in the back with the emulsion component (containing MOG35-55) of Hooke Kit™ MOG35-55/CFA Emulsion PTX, catalog number EK-2110 (lot #131, Hooke Laboratories, Lawrence MA). One site of injection was in the area of upper back, approximately 1 cm caudal of the neck line. The second site was in the area of lower back, approximately 2 cm cranial of the base of the tail. The injection volume was 0.1 mL at each site. Each mouse received 200 μg of MOG35-55.
Within 2 hours of the injection of emulsion, and then again 24 hours after the injection of emulsion, the pertussis toxin component of the kit was administered intraperitoneally. The pertussis toxin (lot #1008, Hooke Laboratories) was administered at 90 ng/dose for both injections and the volume of each injection was 0.1 mL.
Animals were scored daily starting from Day 7 to the end of the study. Scoring was performed blind, by a person unaware of both treatment and of previous scores for each mouse. In-between scores were assigned when the clinical signs fell between two above defined scores.
On Day 28, blood was collected from all mice into gel clot activator tubes and allowed to clot at room temperature for ˜30 minutes. Blood is then centrifuged at ˜10000 g for 5 minutes. Serum was transferred into Eppendorf tubes and stored at −80° C. until shipment to Quanterix™. Serum Neurofilament light (NF-L) protein levels were quantified using Simoa® NF-light Advantage kit, a digital immunoassay for the quantitative determination of NF-L in serum, plasma and CSF. The used antibodies (Uman Diagnostics, Umea Sweden) also cross react with murine, bovine and macaque NF-L epitopes and as such, this assay can be used for research with these species. All samples were tested in duplicate at a dilution factor of 40×. […]

The test system is the same in series [4]. The experiment in a line: Prophylactic administration in adoptive-transfer EAE. To be noted: 100 μg s.c. with alum, days −21, −14, −7, +2, +9. In kind it is in vivo, mice. The protocol: EAE was induced in recipient mice by immunizing donor B6.SJL mice with MOG35-55/CFA, and then, 11 days later, by taking their spleens and restimulating them in culture with MOG35-55 peptide for 3 days. Those cells, now fully encephalitogenic, were injected on Day 0 into recipient groups of mice, which developed EAE.
B6.SJL donor mice were acclimated for 13 days before the start of the study and were 9 weeks old at the time of immunization. Donor mice were used to generate encephalitogenic cells as follows: • Day −14: Immunization with MOG35-55/CFA. • Day −3: Spleen harvest. Mice were euthanized and spleens were harvested, pooled and cell suspension prepared. Cell suspension, at 4 to 5 million cells/mL in T150 flasks, were set up in cultures in the presence of MOG35-55 peptide (20 μg/mL), IL-12 ([…]) and anti-IFNγ (7 μg/mL) for 3 days to generate encephalitogenic T cells. • Day 0: Cell collection and transfer. Cells were collected and spun down, resuspended in RPM11640 (no FCS), counted, and injected into recipient mice at 10 million cells per mouse.
Recipient mice were acclimated for 6 days prior to the first injection and were 6 weeks old when treatment started (on Day −21). Mice were assigned to groups in a balanced manner, to achieve similar average weight across the groups at the start of the study.
Dosing of all mice was performed once on each of the days indicated in Table 4, s.c., at a volume of 0.05 mL/site, each mouse receiving injection at two sites, for a total of 0.1 mL/mouse/dosing day, corresponding to 100 μg of peptide.
For Vehicle treatment, Imject™ Alum solution was prepared at each dosing day. IMCY-0189 has the sequence described in example 6. Lyophilized IMCY-0189 was thawed at room temperature for 10 minutes, resuspended in Na Acetate buffer 50 mM pH 5.4 and incubated at room temperature for 5 minutes. Reconstituted peptide was then mixed with Imject™ Alum Adjuvant before injection.
At termination, blood was collected from all mice into tubes containing K2EDTA and mixed gently. Blood was then centrifuged at ˜10000 g for 5 minutes. Plasma was transferred into Eppendorf tubes and stored at −80° C. until shipment to Quanterix™. Plasma Neurofilament light (NF-L) protein levels were quantified using Simoa© NF-light Advantage kit as described in example 6.
EAE scoring, terminal collection, histology analyses and statistical analyses were performed as described in example 6.

Series [5] concerns the target T1, soluble HLA-DRB1*03:01 human MHC II protein (human).
T1 construct: Soluble protein purchased from the Benaroya Research Institute; also called HLA-DR3; DR3
The experiment in a line: soluble-phase competition vs biotin-labelled control peptide, Eu3+-streptavidin time-resolved fluorescence.

The target of series [6] is T2, soluble HLA-DRB1*04:01 human MHC II protein (human).
T2 construct: Soluble protein purchased from the Benaroya Research Institute; also called HLA-DR4; DR4
Described as above.

For “DPHFLRVPCWKITLFKK [short C-WT, reference compound]”, the “specific induction of effector cells (CD3+CD4+CD154+)” value in series [1] is “specific induction”. The “specific secretion of cytokine (IL-5)” value in series [2] was “specific secretion”.
Consider HCPYCGWYRSPFSRVVHLYR [IMCY-0189], for which the mortality entry in series [3] (to day 28) was “No mice died”. In addition, in series [3] (vs Saline group), the “AUC (area under the curve) of EAE scores” value was “statistically significant reduced”, the “MMS (mean maximal score)” value is “statistically significant reduced”, the disease onset entry is “postponed” and the “level of demyelination (anti-MBP stained spinal cord sections)” value is on record as “statistically significantly reduced level”. In addition, the “level of inflammation (inflammatory foci, H&E stained spinal cord sections)” value in series [3] (vs Saline group) is listed as “statistically significantly reduced level”. Further, in series [3] (Day 28, vs Saline group), the “serum NF-L levels” value is listed as “statistically significant reduced”. Also, the end score result in series [3] (EAE score 0-5, vs Saline group) is given as “reduced”. Further, the mortality entry in series [4] is given as “No mice died”. In series [4] (vs Alum group), the “AUC (area under the curve) of EAE scores” value is given as “statistically significantly improved”, the “MMS (mean maximal score)” value is reported as “statistically significantly improved”, the disease onset entry was “statistically significantly improved” and the end score entry was “statistically significantly improved”. In series [4] (vs Alum group), the “level of demyelination (anti-MBP stained spinal cord sections)” value is reported as “statistically significantly reduced level” and the “level of inflammation (inflammatory foci, H&E stained spinal cord sections)” value was “statistically significantly reduced level”. Also, in series [4] (at termination, vs Alum group), the “plasma NF-L levels” value is “statistically significantly reduced”.
In the case of “QYRLRGKLRAEIENLHRTFDPHFLRVPCWKITLFVIVPVLGP [long C-WT, reference compound]”, the “specific secretion of cytokine (IL-5)” value in series [2] is “specific secretion”.
Consider HCHGCVRYFLRVPCWKI (P1 with the linker GG replaced by VRY) [P6 peptide HCHGCVRYFLRVPCWKI], for which the binding result in series [5] and in series [6] was “binds” in each case.

B1: P9 peptide KCRCVRYFLRVPSWKITLFKK (peptide)
peptide: KCRCVRYFLRVPSWKITLFKK
notes: P4 with the motif KHCPYC replaced by KCRC
B1: the binding result in series [5] and in series [6] was “binds” each time.
Consider KHCPYCVRYFLRVPSWKITLFKK (Synthetic) [P4 peptide KHCPYCVRYFLRVPSWKITLFKK], for which the binding result in series [5] and in series [6] was “binds” throughout.

B2: P10 peptide KCRPYCVRYFLRVPSWKITLFKK (peptide)
peptide: KCRPYCVRYFLRVPSWKITLFKK
notes: P4 with the motif KHCPYC replaced by KCRPYC
Turning to B2, the binding result in series [5] and in series [6] was “binds” in each case.
Regarding KHCPYCVRYFLRVPCWKITLFKK (Synthetic) [P5 peptide KHCPYCVRYFLRVPCWKITLFKK], the binding result in series [5] and in series [6] was “binds” in each case.

B3: P8 peptide KHCHGCVRYFLRVPSWKITLFKK (peptide)
peptide: KHCHGCVRYFLRVPSWKITLFKK
notes: P4 with the motif KHCPYC replaced by KHCHGC
Regarding B3, the binding result in series [5] and in series [6] was “binds” each time.

B4: P7 peptide HCPYCGGFLRVPCWKI (peptide)
peptide: HCPYCGGFLRVPCWKI
notes: P1 with the motif HCHGC replaced by HCPYC
As to B4, the binding result in series [5] and in series [6] was “binds” in each case.

B5: P1 peptide HCHGCGGFLRVPCWKI (peptide)
peptide: HCHGCGGFLRVPCWKI
notes: Synthetic; disclosed in WO2017182528; also called control P1 peptide; prior art peptide P1
For the molecule B5, the binding result in series [5] and in series [6] was “binds” throughout.
For the molecule KHCPYCGGFLRVPSWKITLFKK (P4 with the linker VRY replaced by GG) [P11 peptide KHCPYCGGFLRVPSWKITLFKK], the binding result in series [5] and in series [6] was “binds” in each case.
